Eight molecules from patent publication US20190233540A1 (JUNSHI BIOSCIENCES, published 2019) can be followed below.

One assay addresses murine-derived PCSK9 (murine, UniProt Q80W65 35-694, limits assumed). Description: ELISA, species cross-reactivity. (In an ELISA, binding on a coated surface is turned into a signal by an enzyme label.)
The target in assay [1] is T1, human PCSK9 D347Y recombinant protein (human, UniProt Q8NBP7 31-692, biotin label (sites not given) in Examples 3 and 9). Kind of assay: cell-based or functional assay.
In assay [2] the target is T2, human PCSK9 recombinant protein (human PCSK9 extracellular region protein) (human, UniProt Q8NBP7 31-692, biotin label (biotin-xx-NHS, sites not stated) in the ELISA and flow cytometry assays).
T2 construct: extracellular domain; The tag from the vector pSec CAGA2 ECD is not described; PCSK9 is a secreted protein; also called hPCSK9; HPCSK9
Kind of assay: ForteBio instrument (BLI). (In general: BLI is a label-free optical method that tracks binding on a fibre tip over time.)

The target in assay [3] is T1, human PCSK9 D347Y recombinant protein. Description: ELISA, antibody coated at 1 ug/ml, biotin-labeled PCSK9 (D347Y by the legend) titrated, HRP-streptavidin; the concentration is that of PCSK9; unit taken from the axis log(pg/ml).
For assay [4] the target is unchanged. Kind of assay: competition ELISA, biotin-labeled PCSK9 (D347Y by the legend) captured on streptavidin, antibody titrated in 200 ng/ml reference antibody, bound reference antibody detected with anti-human IgG-Fc; competitor: reference antibody; unit taken from the axis log(ng/ml); the curve is nearly flat (OD450 about 1.2 to 1.1), ambiguous fit.
The target is the same in assay [5]. Kind of assay: competition ELISA, biotin-labeled PCSK9 (D347Y by the legend) captured on streptavidin, antibody titrated in 200 ng/ml reference antibody, bound reference antibody detected with anti-human IgG-Fc; competitor: reference antibody; unit taken from the axis log(ng/ml).
The target is the same in assay [6]. Description: ELISA, biotin-labeled PCSK9 (D347Y by the legend) at 2 ug/ml captured on streptavidin, antibody titrated; unit taken from the axis log(ng/ml).
The target is the same in assay [7]. Kind of assay: cell-based or functional assay. This is another data set of the same source.
Assay [8] deals with T2, human PCSK9 recombinant protein (human …). Description: ELISA, biotin-labeled PCSK9 at 2 ug/ml captured on streptavidin, antibody titrated; unit taken from the axis log(pg/ml).
Assay [9] shares this target. Description: ELISA, biotin-labeled PCSK9 at 0.2 ug/ml captured on streptavidin, antibody titrated; unit taken from the axis LOG (pg/mL).

Numbering of substitutions follows the chain as printed.

T1 sequence (Q8NBP7 31-692 D374Y): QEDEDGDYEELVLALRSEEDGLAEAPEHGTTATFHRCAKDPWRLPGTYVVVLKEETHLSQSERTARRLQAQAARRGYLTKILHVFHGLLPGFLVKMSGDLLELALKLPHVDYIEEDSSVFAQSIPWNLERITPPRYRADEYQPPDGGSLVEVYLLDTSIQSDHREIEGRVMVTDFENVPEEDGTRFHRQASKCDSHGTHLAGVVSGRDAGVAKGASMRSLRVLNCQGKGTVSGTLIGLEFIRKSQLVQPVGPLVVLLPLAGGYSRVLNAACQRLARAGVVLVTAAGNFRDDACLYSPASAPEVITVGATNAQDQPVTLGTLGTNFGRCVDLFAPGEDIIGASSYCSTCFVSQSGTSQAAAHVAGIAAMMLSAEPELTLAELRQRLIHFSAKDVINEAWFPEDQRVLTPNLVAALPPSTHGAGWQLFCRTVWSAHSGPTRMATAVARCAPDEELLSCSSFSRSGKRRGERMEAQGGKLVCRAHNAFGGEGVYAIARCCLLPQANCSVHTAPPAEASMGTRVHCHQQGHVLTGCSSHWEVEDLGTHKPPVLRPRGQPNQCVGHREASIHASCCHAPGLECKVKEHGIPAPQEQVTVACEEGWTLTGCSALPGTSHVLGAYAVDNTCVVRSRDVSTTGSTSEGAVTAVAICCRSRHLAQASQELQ
T2 sequence (Q8NBP7 31-692 limits assumed): as the sequence (Q8NBP7 31-692 D374Y) above, with Y344D counted along it
murine-derived PCSK9, sequence (Q80W65 35-694 limits assumed): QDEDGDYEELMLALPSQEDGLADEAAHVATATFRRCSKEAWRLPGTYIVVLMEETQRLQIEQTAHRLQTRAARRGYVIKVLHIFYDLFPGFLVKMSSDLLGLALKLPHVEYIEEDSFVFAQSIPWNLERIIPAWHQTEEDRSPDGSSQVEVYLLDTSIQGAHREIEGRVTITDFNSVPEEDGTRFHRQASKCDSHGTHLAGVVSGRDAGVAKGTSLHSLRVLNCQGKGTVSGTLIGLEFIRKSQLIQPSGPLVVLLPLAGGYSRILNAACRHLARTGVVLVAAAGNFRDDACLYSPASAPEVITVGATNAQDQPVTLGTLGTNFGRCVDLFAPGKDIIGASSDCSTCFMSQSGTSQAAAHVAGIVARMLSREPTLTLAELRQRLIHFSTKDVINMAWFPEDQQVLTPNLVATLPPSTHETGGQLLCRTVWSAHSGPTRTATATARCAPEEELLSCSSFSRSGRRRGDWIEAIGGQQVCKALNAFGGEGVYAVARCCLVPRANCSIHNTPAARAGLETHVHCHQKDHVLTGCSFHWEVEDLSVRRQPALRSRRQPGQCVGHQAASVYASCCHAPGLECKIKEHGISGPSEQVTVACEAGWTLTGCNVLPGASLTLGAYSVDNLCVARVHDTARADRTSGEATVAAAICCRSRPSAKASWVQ

B1: 1B11 murine-derived anti-PCSK9 monoclonal antibody (antibody, V domains shown)
VH: QVQLQQSGAVLVRPGTSIKVSCKASGYAFTNYLIEWIKKRPGQGLEWIGMINPGSGDTNFNEKFKAKATLTADKSSTTAYMQLNSLTFDDSAVYFCARSSQLGLPYWGQGTLVTVSA
VL: DIQMTQSPASLSASVGETVTITCRASENIYSYLAWYQQKQENSPQLLVYNAYTLADGVPSRFSGSGSGTQFSLKIISLQPEDFGNYYCQHHYRTPPTFGGGTKLEIK
notes: Mouse hybridoma antibody
As for B1, the binding result in the assay with murine-derived PCSK9 is recorded as “no binding”. Moreover, the “IC50, LDL uptake of HepG2 cells” value in assay [1] was ~1 µg/mL. Further, the Kd (commonly the free concentration of one partner at which half of the binding sites on the other are occupied at equilibrium, for simple one-to-one binding) in assay [2] came out at 4.7 nM. Also, the EC50 (as a rule, the concentration at which the effect is half-maximal) in [3] is 0.143 µg/mL. Also, the IC50 (as a rule, the concentration needed to halve the response being measured) in [4] was ~0.227 µg/mL.

B2: 1B5 murine-derived anti-PCSK9 monoclonal antibody (antibody, V domains shown)
VH: DVQLQESGPGLVKPSQSLSLTCTVTGYSITSDYAWNWIRQFPGNKVEWMGYISYSGSSSYNPSLKGRISITRDTSKNQFFLQLNSVTTEDTATYYCARFYYRFDAYFDSWGQGTTLTVSS
VL: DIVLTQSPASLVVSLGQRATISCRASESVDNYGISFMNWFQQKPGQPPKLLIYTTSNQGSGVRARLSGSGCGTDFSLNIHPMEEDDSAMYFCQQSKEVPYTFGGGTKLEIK
notes: Mouse hybridoma antibody
As for B2, the “IC50, LDL uptake of HepG2 cells” value in [1] was ~1 µg/mL. In addition, the Kd in assay [2] came to 0.9 nM. The half-maximal inhibitory concentration (IC50) in [5] was determined as 0.675 µg/mL. In addition, the values for the EC50 in assay [6] and in assay [3] were 0.318 µg/mL and 0.666 µg/mL, respectively.

B3: 3G12 murine-derived anti-PCSK9 monoclonal antibody (antibody, V domains shown)
VH: QVQLKQSGPSLLQPSQSLSITCTVSGFSLTSYGIHWVRQSPGKGLEWLGVIWRGGITDYNAPFMSRLNITKDNSKNQVFFKMNSLQVDDTAIYYCANHRDWGQGTLVTVSA
VL: DIQMTQSPSSLSASLGGKVTITCKASQDINKYIDWYQHKPGKSPRLLIHYASTLQPGIPSRFSGSGSGRDYSFSISNLEPEDIATYYCLQYDDLWTFGGGTKLEIK
notes: Mouse hybridoma antibody
In the case of B3, the “IC50(nM), LDL uptake of HepG2 cells (FL-LDL fluorescence)” value in assay [7] amounted to 5.5 nM. Moreover, the EC50 in [8] is 0.078 µg/mL; in assay [6] it was 0.223 µg/mL; in [3], 0.0835 µg/mL. Further, the “IC50, LDL uptake of HepG2 cells” value in assay [1] is ~1 µg/mL. For the same molecule, the dissociation constant Kd in assay [2] stood at 0.28 nM. Besides, in [5], the IC50 is 0.0766 µg/mL.

B4: 3G12 chimeric antibody (antibody, V domains shown)
VH: B3 VH
VL: B3 VL
As to B4, the EC50 in assay [8] was 0.0338 µg/mL.

B5: 1A5 murine-derived anti-PCSK9 monoclonal antibody (antibody, V domains shown)
VH: B3 VH with L12V, I34V, I56S, P62A, N68S, N76S, V87A
VL: B3 VL with G17D, S43G, A51T, L89V
notes: Mouse hybridoma antibody
Regarding B5, in assay [1], the “IC50, LDL uptake of HepG2 cells” value is ~1 µg/mL. Moreover, the Kd in [2] came to 0.91 nM. Besides, the IC50 in assay [5] was found to be 0.808 µg/mL. Further, the values for the EC50 in assay [6] and in [3] were 0.251 µg/mL and 0.752 µg/mL, respectively.

B6: 2B12 murine-derived anti-PCSK9 monoclonal antibody (antibody, V domains shown)
VH: DVQLQESGPGLVKPSQSLSLTCSVTGFSITSDYAWNWIRQFPGNKLEWMGYISYSGTTNYNPSLKSRISITRDTSKNQFFLHLNSVITEDTATYYCARREGHYSWFPYWGQGTLVTVSA
VL: DIVLTQSPASLAVSLGQRATISCRASESVEYYGTSLMHWYQHKPGQTPKLLIYSGSNVESGVPARFSGSGSGTDFSLNIHPVEEDDIAMYFCQQSREVPSTFGGGTKLEIK
notes: Mouse hybridoma antibody
With B6, in assay [1], the “IC50, LDL uptake of HepG2 cells” value is ~1 µg/mL. Further, the Kd in assay [2] was 0.49 nM. Further, the EC50 in [6] was 0.023 µg/mL; in [3] it was 0.0389 µg/mL.

B7: humanized anti-PCSK9 antibody clone 32 (antibody, V domains shown)
VH: QVQLQESGPGLVKPSQTLSLTCTVSGFSISSYGIHWIRQSPGKGLEWIGVIWRGGITDYNAPFMSRVTISKDNSKNQVSFKLSSVTAADTAVYYCANHRDWGQGTLVTVSS
VL: DIQMTQSPSSLSASVGDRVTITCQASQDINKYIDWYQHKPGKAPKLLIHYASTLQPGVPSRFSGSGSGRDYTFTISSLQPEDIATYYCLQYDDLWTFGQGTKVEIK
notes: also called humanized antibody
Turning to B7, the “IC50, LDL uptake of HepG2 cells (Dil-LDL fluorescence)” value in [1] was ~1 µg/mL. Moreover, the concentration for a half-maximal effect (EC50) in assay [9] amounted to 5.16 ng/mL.

B8: humanized anti-PCSK9 antibody clone 77 (antibody, V domains shown)
VH: B7 VH with I34V, I56S, P62A
VL: B7 VL
notes: It shares its light chain with clone 32; also called humanized antibody
On to B8, for which the “IC50, LDL uptake of HepG2 cells (Dil-LDL fluorescence)” value in [1] was ~1 µg/mL. Also, the EC50 in assay [9] was 4.81 ng/mL.
